Experiments:
[1] = molecular target: T1, CitAGacS649 (chimeric protein: GacS649 with its PDC domain replaced by the PDC domain of CitA from K (Pseudomonas aeruginosa | Klebsiella …, UniProt P52687 55-173, amine-reactive AlexaFluor 488 label (in the MST))); experiment: MST; 0.01 M citrate
[2] = molecular target: T1, CitAGacS649 (chimeric protein: GacS649 …); experiment: MST; no citrate

B1: RetSHK (histidine kinase region of the sensor histidine kinase RetS, residues 413-649) (domain or fragment)
chain: QTKAEFLAKISHEIRTPMNGVLGMTELLLGTPLSAKQRDYVQTIHSAGNELLTLINEILDISKLESGQIELDEVQFDLNALIEDCLDIFRVKAEQQRIELISFTQPQVPRVIGGDPTRLRQVVLSLLDNAFKQTEEGEILLVVALDDQGETPRLRIAVQDSGHPFDAKEREALLTAELHSGDFLSASKLGSHLGLIIARQLVRLMGGEFGIQSGSSQGTTLSLTLPLDPQQLENPTA
Kd [1]: 46 µM
Kd [2]: 11 µM

— article PMC12148439 (2025)
